Laboratory results reported in US20200331998A1.

Target: UCART19 CAR (anti-CD19 chimeric antigen receptor with a 4G7-derived scFv, on UCART19 cells)
Experiment: flow cytometry blocking assay: fresh UCART19 cells pre-incubated with unconjugated antibody, then stained with labelled soluble CD19-hFc; ligand: m14

Sequence of UCART19 CAR (anti-CD19 chimeric antigen receptor with a 4G7-derived scFv, on UCART19 cells) (chain, as listed by the source mutant): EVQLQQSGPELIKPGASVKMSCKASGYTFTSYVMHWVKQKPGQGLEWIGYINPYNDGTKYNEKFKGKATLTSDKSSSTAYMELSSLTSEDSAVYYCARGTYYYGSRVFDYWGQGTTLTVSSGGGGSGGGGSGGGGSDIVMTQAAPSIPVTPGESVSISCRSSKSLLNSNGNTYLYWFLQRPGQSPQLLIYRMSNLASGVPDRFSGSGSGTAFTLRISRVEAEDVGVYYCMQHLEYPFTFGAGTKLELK

CAR+ (% cells stained by APC-sCD19) at 0.2 µg/mL antibody: 52.4% | CAR+ (% cells stained by APC-sCD19) at 0.39 µg/mL antibody: 52.9% | CAR+ (% cells stained by APC-sCD19) at 0.78 µg/mL antibody: 53.4% | CAR+ (% cells stained by APC-sCD19) at 1.56 µg/mL antibody: 52.7% | CAR+ (% cells stained by APC-sCD19) at 3.125 µg/mL antibody: 52.9% | CAR+ (% cells stained by APC-sCD19) at 6.25 µg/mL antibody: 52.6% | CAR+ (% cells stained by APC-sCD19) at 12.5 µg/mL antibody: 52.3% | CAR+ (% cells stained by APC-sCD19) at 25 µg/mL antibody: 52% | CAR+ (% cells stained by APC-sCD19) at 50 µg/mL antibody: 53.3% | CAR+ (% cells stained by APC-sCD19) at 100 µg/mL antibody: 54.8%
Substance: Isotype Control (antibody)
